The record followed here is patent publication US20130224191A1, “NOTUM PROTEIN MODULATORS AND METHODS OF USE” (priority 2010, published 2013).

Some results are limits rather than exact numbers.

In test [1] the test system is Wnt3A-mediated induction of luciferase in the 293.TCF cells. The experiment in a line: Wnt3A canonical signaling assay, bioactivity of Notum constructs. The class given is cell-based, human. The settings on record: without added Notum. Summed up:
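293.TCF cells (HEK 293T stably carrying a TCF-driven GFP/luciferase reporter), 2.5×10^4 per well, serum-starved 23 h, then given Notum proteins 1 h before Wnt3A or control L-cell conditioned medium.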

The target of test [2] is T1, human Notum (recombinant or endogenous; construct not specified at the place of use) (human, UniProt Q6P988 20-496).
T1 construct: also called hNotum; human Notum protein
T1 sequence: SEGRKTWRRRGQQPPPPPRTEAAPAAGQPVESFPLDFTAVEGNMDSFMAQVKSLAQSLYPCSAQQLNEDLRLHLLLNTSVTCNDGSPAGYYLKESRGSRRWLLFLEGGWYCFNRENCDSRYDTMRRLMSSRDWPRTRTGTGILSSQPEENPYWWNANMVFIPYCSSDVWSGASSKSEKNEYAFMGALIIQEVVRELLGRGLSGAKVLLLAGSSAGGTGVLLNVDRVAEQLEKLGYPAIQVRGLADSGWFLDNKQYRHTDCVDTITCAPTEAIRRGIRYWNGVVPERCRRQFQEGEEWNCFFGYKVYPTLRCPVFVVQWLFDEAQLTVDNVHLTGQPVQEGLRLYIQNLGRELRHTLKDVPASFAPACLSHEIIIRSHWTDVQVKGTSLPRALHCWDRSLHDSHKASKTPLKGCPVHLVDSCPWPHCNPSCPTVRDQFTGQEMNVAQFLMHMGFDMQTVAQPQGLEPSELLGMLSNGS
The experiment in a line: SPR (Biacore), antigen at 12.5 to 0.78125 nM, 1:1 Langmuir binding model. How it is done: Binding characteristics for antibodies were assessed using antibody capture Biacore technology. Disassociation constant values Kd (koff/kₒₙ) were determined for selected antibodies. A Biacore 3000 (GE Healthcare) biosensor was used for surface plasmon resonance (SPR) kinetic measurements. Using purified antibody quantitative koff constants were derived through capture the antibody on the sensor surface. Anti-mouse IgG was immobilized on the CM5 surface of sensor chip using standard amine coupling chemistry. Each mAb was captured onto an anti-IgG surface before the antigen was injected over the immobilized antibody allowing the antibody-antigen interaction to be analyzed.
Three methods were used to characterize the affinity of humanized SC2.D2.2 relative to its analogous mAb with the murine variable region. First, binding signal was measured for a fixed amount of antibody probed against serial dilutions of antigen in an ELISA format. Measured signal levels were substantially similar (data not shown). Second, the affinity of murine SC2.D2.2 was measured by Biacore using surface plasmon resonance (SPR) to provide the results set forth in FIG. 32A. […] Long off-rates for this interaction made accurate determination of affinity through kinetics difficult. […]
For orientation: In SPR one partner is held on a chip, and binding of the other changes the refractive index at the surface.

A further test deals with T2, Notum (Homo sapiens, UniProt Q6P988).
T2 sequence (Q6P988 20-496): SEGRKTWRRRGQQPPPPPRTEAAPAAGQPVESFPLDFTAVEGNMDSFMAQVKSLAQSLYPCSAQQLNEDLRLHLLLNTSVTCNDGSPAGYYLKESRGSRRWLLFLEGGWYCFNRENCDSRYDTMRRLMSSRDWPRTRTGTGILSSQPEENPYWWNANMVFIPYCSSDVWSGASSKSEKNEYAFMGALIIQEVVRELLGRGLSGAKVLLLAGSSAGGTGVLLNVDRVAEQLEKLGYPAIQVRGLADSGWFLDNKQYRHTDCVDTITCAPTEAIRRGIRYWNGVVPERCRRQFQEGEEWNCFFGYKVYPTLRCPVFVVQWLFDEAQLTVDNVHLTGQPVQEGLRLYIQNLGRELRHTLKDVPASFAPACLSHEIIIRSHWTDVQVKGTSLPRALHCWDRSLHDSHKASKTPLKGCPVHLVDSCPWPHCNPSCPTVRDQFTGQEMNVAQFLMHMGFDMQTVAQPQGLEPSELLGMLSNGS
The experiment in a line: Bio-layer interferometry on ForteBIO RED. The class given is binding. The following applies: 250, 125 and 62.5 nM antigen. As for the experimental part:
Three methods were used to characterize the affinity of humanized SC2.D2.2 relative to its analogous mAb with the murine variable region. First, binding signal was measured for a fixed amount of antibody probed against serial dilutions of antigen in an ELISA format. […] Second, the affinity of murine SC2.D2.2 was measured by Biacore using surface plasmon resonance (SPR) to provide the results set forth in FIG. 32A. Based on a concentration series of 12.5, 6.25, 3.125, 1.5625, 0.78125 nM and using a 1:1 Langmuir binding model, the Kd of the antibody binding to antigen was estimated to be less than 0.1 nM. Long off-rates for this interaction made accurate determination of affinity through kinetics difficult. The murine antibody was then directly compared to the humanized derivative using bio-layer interferometry analysis on a ForteBIO RED (ForteBIO, Inc.) with a concentration series of 250, 125, and 62.5 nM antigen.
Background: In BLI a coated tip is dipped into the sample, and binding shifts an interference pattern.

In another test the test system is human Notum D141N, D141S. The experiment in a line: Neutralization of point mutated human Notum, 4-MUH assay. It counts as biochemical. How it is done: In addition to the assays described in Examples 23 and 24, a fluorescent esterase substrate, 4-methylumbelliferyl heptanoate (Sigma), can be used to measure the activity of hydrolases using standard assay conditions (Richardson and Smith, 2007, PMID: 17620441; Jacks and Kircher, 1967, PMID: 5582971). Briefly, 4-MUH was dissolved in DMSO to a final concentration of 1.2 mM. This substrate was diluted 1:10 into assay buffer (0.1M Tris, pH 7.5, 50 mM NaCl, 0.05% Brij) and incubated with defined amounts of Notum enzyme or point-mutated Notum enzymes, and enzymatic release of the fluorescent molecule 4-methylumbelliferone monitored (355 nm excitation, 460 nm emission) using a Wallac Victor3 Multilabel Counter (Perkin Elmer).
Similarly, the macaque residue at this position was point mutated to the human residue (N141D). […] However, these point mutants differed in their ability to be neutralized by SC2.D2.2 (FIG. 26).

B1: SC2.D2.2 (antibody, V domains shown)
VH: DVQLVESGGGLVQPGGSRKISCAASGFTFSSYGMHWVRQAPEKGLEWVAYISSSTVTTYYADTVKGRFTISRDNANNTLFLQMTSLRSEDTAMYYCSRQNWDGGYFDVWGAGTTVTVSS
VL: DIVLTQSLASLAVSLGQRATISCRASKSVSSSGYSYMHWYQQKPGQPPKLLIYLASNLESGVPARFSGSGSGTDFTLNIHPVEEEDAATYYCQHSRALPLTFGAGTKLELKR
notes: also called murine SC2.D2.2
A word on the Kd: it is a measure of binding affinity in units of concentration. As for B1, the “effect of antibody alone on induction of luciferase due to Wnt3A CM” value in test [1] is “does not inhibit the induction of luciferase due to Wnt3A CM”. Moreover, the equilibrium dissociation constant (Kd) in test [2] is less than 0.1 nM. The “affinity, binding curves” value in the test with Notum was “excellent affinity”. Further, the “neutralization of mutant Notum protein” value in the test with human Notum D141N, D141S is on record as “eliminated the ability of SC2.D2.2 to neutralize the resultant protein”.
